Data on three substances can be found in PMC2787660.

Assay in all cases: cross-linking
Test [1] concerns the target apoA-I E198K (human).
For test [2], the target named is apoA-I L(42,44)D (human).
Test [3] deals with apoA-I L(46,47)D (human).

Take apoA-I E198K (natural protein): the stoichiometry N (in general, the number of molecules, sites or subunits per partner or assembly) in test [1] amounted to 2. In test [2], apoA-I L(42,44)D (natural protein) had a stoichiometry N of 2.

The substance apoA-I L(46,47)D (natural protein) returned a stoichiometry N in test [3] of 2.
